In the supplement of paper PMC10567573:

B1: PRPH (parent)
chain: RTFGPPPSLSPGAFSYSSSSRFSS
B2: ALDH8A1 (parent)
chain: WSSRSPQERSRVLNQVADLLEQSL

Variants of: B1
Experiment: protein stability index of a GFP-peptide fusion (GPS, HEK-293T) (PSI 1-6); higher = more stable
Details: c terminus: a fixed tail appended
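Further: lentivirally expressed fusions sorted by FACS into six bins by GFP to DsRed ratio, PSI derived from sequencing read proportions per bin multiplied by bin number.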

Protein stability index, by site and new letter:
S24: W 2.82, H 3.55, N 3.44, L 2.27, I 3.01, Y 2.46, D 3.19, T 3.23, K 3.89, C 2.83, E 3.38, V 2.3, M 2.55, R 3.85, Q 3.31, F 1.96
S23: R 3.52, F 3.09, D 2.9, N 3.36, K 3.48, I 2.52, E 2.79, M 2.88, A 3.17, Y 2.66, T 3.23, C 3.02, H 3.02, Q 3.47, L 2.93, V 2.85, P 3.59, G 2.6
F22: Y 3.22, S 4.18, Q 3.78, V 3.8, W 2.83, M 3.73, N 3.44, T 4.17, P 3.27, K 4.21, I 3.81, L 3.72

Variants of: B2
Experiment: as above
Details: c terminus: a fixed tail appended

Protein stability index, by site and new letter:
R4: W 2.68, D 2.79, C 1.68, H 2.71, T 2.62, P 2.64, A 2.18, G 2.52, N 2.61, S 2.44, I 2.64, K 2.49, E 2.97, Y 2.09, V 2.02, M 2.22, L 2.03, Q 3.04, F 1.82
S5: A 2.62, G 2.05, M 2.54, F 1.99, T 2.57, R 2.87, C 2.56, Q 3.01, W 1.59, P 2.57, Y 1.6, K 2.52, N 2.43, E 2.88, D 2.85, I 2.4, H 2.14, V 2.81, L 2.74
Q15: G 2.66, R 2.85, D 3.31, W 1.79, F 1.54, M 1.67, T 2.59, C 1.81, A 1.51, V 1.75, I 2.07, Y 1.81, S 2.74, E 3.03, K 2.13, L 2.36, P 3.13, N 3.22, H 2.13
S3: V 2.78, P 2.54, F 1.88, K 2.53, D 2.77, R 2.28, A 1.98, E 3.5, I 2.2, Y 2.25, H 2.52, L 1.98, W 1.8, T 2.64, N 2.35, Q 2.52, M 2.27, C 2.26, G 1.82
V16: C 2.98, D 4.34, A 3.86, E 4.6
E8: V 2.23, W 2.36, A 2.31, D 2.87, K 2.04, Q 2.57, P 2.51, M 2.19, L 2.1, I 2.68, N 2.23, F 2.01, R 2.88, S 2.16, C 1.6, H 2.71, T 2.46, G 2.17, Y 2.71
P6: Y 1.98, I 2.44, R 2.31, G 2.85, L 2.17, V 2.39, Q 2.85, A 2.13, T 3.1, H 2.73, M 1.99, K 2.42, E 3.07, S 2.8, W 2.9, N 2.6, D 3.19, F 1.84, C 2.19
L13: P 4.09, E 3.49, W 2.55, T 3.5, I 3.06, C 3.11, A 2.59, F 2.4, D 3.81, S 3.49, H 2.73, G 3.46, N 3.54, R 3.03, V 3.13, M 2.63, Y 2.6, K 3.53, Q 3.85
W1: V 3.11, T 3.39, D 3.69, P 3.02, K 3.18, C 2.78, H 3.56, I 2.69, E 3.54, L 2.91, Q 3.28, F 2.67, N 3.61, A 3.21, R 3.52, Y 2.68, G 3.44, M 3.06, S 3.69
S10: R 2.95, F 1.24, G 3.8, A 2.41, P 2.49, N 2.29, V 2.05, C 2.36, Q 2.32, W 2.82, T 1.81, K 1.99, M 2.45, E 3.11, D 3.14, H 2.58, L 2.25, Y 2.37
R9: F 2.56, D 3.25, Y 2.21, S 2.87, Q 2.24, M 2.16, E 3.38, T 2.23, I 2.44, V 2.37, L 2.48, K 2.83, H 2.77, W 2.22, N 2.86, A 2.59, C 1.39, G 2.96, P 3.37
V12: I 1.98, L 2.06, K 3.07, Q 3.45, N 3.99, A 3.11, R 2.71, G 3.48, Y 2.74, C 2.35, W 1.73, M 2.31, D 3.85, T 3.47, S 3.78, E 3.88, H 3.05, F 2.12, P 4.23
N14: R 3.47, Y 4.15, V 2.1, H 2.17, A 2.56, D 2.28, L 1.62, Q 2.41, I 2.02, S 2.58, E 3.24, C 2.21, K 1.97, F 1.26, M 1.79, T 2.82, W 1.95, P 3.21, G 2.38
Q7: W 2.37, I 2.42, P 2.9, E 2.76, D 2.96, K 2.61, G 2.7, F 1.77, Y 1.79, H 2.31, R 2.62, N 2.81, S 2.21, M 2.23, L 1.91, V 2.53, C 2.24, A 2.38, T 2.15
S2: Q 2.17, T 2.46, V 2.76, H 2.56, W 1.92, F 2.81, D 2.8, G 2.5, A 1.99, K 2.48, P 2.92, R 2.81, I 1.78, M 2.51, N 2.78, E 2.9, L 1.8, C 1.87, Y 2.65
R11: G 2.91, W 1.86, C 2.18, T 2.48, K 1.99, Q 2.38, P 2.58, Y 2.22, I 2.21, H 1.89, D 3.37, N 2.48, F 2.43, M 1.55, V 2.68, L 2.15, S 2.74, E 3.27, A 3.4
